Data published in article PMC5398546.

Columns and labels:
[1] = target: wild-type human serotonin 5HT1B receptor (residues 34-390) with C-terminal His10 (human) (UniProt P28222); assay: fluorescent saturation binding assay (FSBA); DDM-solubilised donitriptan-bound His-tagged 5HT1BR immobilised on Ni2+-coated 96-well plate; GFP-mini-G protein 0 to 5 μM, 90 min on ice; specific binding = minus the GFP-mini-Gs condition; apparent KD, one-site fit
[2] = target: C-terminally truncated human A2AR (residues 1-317, N154A, C-terminal His10) (human) (UniProt P29274); assay: fluorescent saturation binding assay (FSBA); DDM-solubilised His-tagged β1AR or A2AR immobilised on Ni2+-coated 96-well plate; GFP-mini-Gs 0 to 2.8 μM, 90 min on ice; specific binding = agonist minus inverse agonist condition; apparent KD, one-site fit
C-terminally truncated human A2AR (residues 1-317, N154A, C-terminal His10) (human), sequence (P29274 1-317 N154A): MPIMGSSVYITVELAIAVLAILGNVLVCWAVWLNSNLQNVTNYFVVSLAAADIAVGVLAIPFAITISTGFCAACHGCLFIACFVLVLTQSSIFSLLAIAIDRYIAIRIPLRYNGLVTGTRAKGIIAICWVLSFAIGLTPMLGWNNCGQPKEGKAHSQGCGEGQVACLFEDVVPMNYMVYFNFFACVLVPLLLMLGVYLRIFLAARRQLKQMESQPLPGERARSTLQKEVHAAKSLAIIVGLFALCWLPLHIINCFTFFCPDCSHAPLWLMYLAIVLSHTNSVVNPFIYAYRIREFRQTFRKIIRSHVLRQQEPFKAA

wild-type human serotonin 5HT1B receptor (residues 34-390) with C-terminal His10 (human), sequence (P28222 34-390): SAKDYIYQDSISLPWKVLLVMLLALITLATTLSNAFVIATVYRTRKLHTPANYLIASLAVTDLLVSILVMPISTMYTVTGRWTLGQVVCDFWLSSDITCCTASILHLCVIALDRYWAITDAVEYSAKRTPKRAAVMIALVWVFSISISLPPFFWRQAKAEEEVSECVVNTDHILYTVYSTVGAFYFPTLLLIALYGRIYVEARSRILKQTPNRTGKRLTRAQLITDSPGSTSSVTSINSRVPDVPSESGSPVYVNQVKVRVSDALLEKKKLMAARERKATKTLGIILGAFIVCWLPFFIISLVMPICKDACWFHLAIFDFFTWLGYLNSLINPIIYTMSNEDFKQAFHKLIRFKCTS

Kd [1]	Kd [2]	Substance
180 nM		GFP-mini-Go1 (construct 12) (domain or fragment)
	430 nM	GFP-mini-Gs (domain or fragment)
390 nM		GFP-mini-Gs/i1 (construct 43) (domain or fragment)
